The values below come from doi:10.1101/391136.

Assay [1] concerns the target S100A1. Description: ITC.
Assay [2] concerns the target S100A1. Description: other fluorescence titration.

Regarding “S100A4 (from UniProt P26447 4-101) (natural protein)”, the Kd – broadly, the free concentration of one partner at which half of the binding sites on the other are occupied at equilibrium, for simple one-to-one binding – with S100A1 [1] was determined as 6.37 µM; with S100A1 [2], 10 µM. Further, the stoichiometry N (in general, the number of molecules, sites or subunits per partner or assembly) with S100A1 [1] came out at 1.
